Data on seven substances can be found in US20230381281A1, “PHARMACEUTICAL COMPOSITION COMPRISING GLUCAGON/GLP-1/GIP TRIPLE AGONIST OR LONG-ACTING CONJUGATE THEREOF FOR PREVENTING OR TREATING LUPUS-RELATED DISEASES” (HANMI PHARM. CO., LTD., priority 2020, published 2023).

Bridge positions count the residues as written; N and C are the ends. Square brackets hold non-standard residues; d marks the D form. Ends that are not written are not given here. Aib = CC(C)(N)C(=O)O

Type in all cases: cell-based
One assay has as its target T1, human GIP receptor (Homo sapiens, UniProt P48546).
T1 construct: expressed in transfected cells; host or cells: Chinese hamster ovary (CHO)
T1 sequence (P48546 22-466): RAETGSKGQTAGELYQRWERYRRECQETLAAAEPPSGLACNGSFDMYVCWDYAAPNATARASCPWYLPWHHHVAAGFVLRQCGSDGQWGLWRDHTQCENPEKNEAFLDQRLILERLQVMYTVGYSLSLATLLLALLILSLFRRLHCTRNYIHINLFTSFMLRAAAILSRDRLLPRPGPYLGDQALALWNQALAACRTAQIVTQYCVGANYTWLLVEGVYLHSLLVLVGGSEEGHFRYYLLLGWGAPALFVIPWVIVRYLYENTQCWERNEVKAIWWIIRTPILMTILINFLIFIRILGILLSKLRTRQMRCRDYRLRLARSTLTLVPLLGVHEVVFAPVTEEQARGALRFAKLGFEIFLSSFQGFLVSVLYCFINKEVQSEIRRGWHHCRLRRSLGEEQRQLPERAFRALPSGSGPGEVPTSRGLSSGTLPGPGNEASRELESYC
The experiment in a line: In vitro cAMP activity in human GIP receptor-expressing CHO cells (LANCE cAMP kit). The following applies: long-acting conjugates; relative titer from cAMP EC50 compared to human GIP. The method, then:
(§1) In order to measure the activity of the triple agonists and long-acting conjugates thereof prepared according to Examples 1 and 2, the in-vitro cell activity was measured using cell lines transformed with GLP-1 receptor, glucagon (GCG) receptor, and GIP receptor, respectively.
(§2) The cell lines were transformed to express human GLP-1 receptor, human GCG receptor and human GIP receptor genes in Chinese hamster ovary (CHO), respectively, and are suitable for measuring the activities of GLP-1, GCG, and GIP. Therefore, the activity for each part was measured using each transformed cell line.
To measure the GIP activity of the triple agonists and long-acting conjugates thereof prepared according to Examples 1 and 2, human GIP was diluted from 50 nM to […] by 4-fold serial dilution, and the triple agonists and long-acting conjugates thereof prepared according to Examples 1 and 2 were diluted from 400 nM to 0.00038 nM by 4-fold serial dilution. The culture medium was removed from the cultured human GIP receptor-expressing CHO cells, 5 μl of each of the serially diluted materials was added to the cells, and then 5 μl of buffer containing cAMP antibody was added to the cells, followed by 15 minutes of incubation at room temperature. Then, cells were lysed by adding 10 μl of detection mix containing cell lysis buffer, and reacted at room temperature for 90 minutes. The cell lysate after the reaction had been completed, was applied to the LANCE cAMP kit (PerkinElmer, USA) to calculate the EC50 value through the accumulated cAMP, and then compared with each other.

Another assay concerns the target T2, human GCG receptor (Homo sapiens, UniProt P47871).
T2 construct: expressed in transfected cells; host or cells: Chinese hamster ovary (CHO)
The experiment in a line: In vitro cAMP activity in human GCG receptor-expressing CHO cells (LANCE cAMP kit). As to conditions: for In vitro activity compared to native peptide (%) vs Glucagon: long-acting conjugates, relative titer from cAMP EC50 compared to human GCG; for activity on the glucagon receptor: statement in words in the description. The procedure: as §1, §2
To measure the GCG activity of the triple agonists and long-acting conjugates prepared according to Examples 1 and 2, human GCG was diluted from 50 nM to […] by 4-fold serial dilution, and the triple agonists and long-acting conjugates thereof prepared according to Examples 1 and 2 were diluted from 400 nM to 0.00038 nM by 4-fold serial dilution. The culture medium was removed from the cultured human GCG receptor-expressing CHO cells, 5 μl of each of the serially diluted materials was added to the cells, and then 5 μl of buffer containing cAMP antibody was added to the cells, followed by 15 minutes of incubation at room temperature. Then, cells were lysed by adding 10 μl of detection mix containing cell lysis buffer, and reacted at room temperature for 90 minutes. The cell lysate after the reaction had been completed, was applied to the LANCE cAMP kit (PerkinElmer, USA) to calculate the EC50 value through the accumulated cAMP, and then compared with each other.

The next assay has as its target T3, human GLP-1 receptor (Homo sapiens, UniProt P43220).
T3 construct: expressed in transfected cells; host or cells: Chinese hamster ovary (CHO)
The experiment in a line: In vitro cAMP activity in human GLP-1 receptor-expressing CHO cells (LANCE cAMP kit). As to conditions: long-acting conjugates; relative titer from cAMP EC50 compared to human GLP-1. The procedure:
as §1, §2
To measure the GLP-1 activity of the triple agonists and long-acting conjugates prepared according to Examples 1 and 2, human GLP-1 was diluted from 50 nM to […] by 4-fold serial dilution, and the triple agonists and long-acting conjugates thereof prepared according to Examples 1 and 2 were diluted from 400 nM to 0.00038 nM by 4-fold serial dilution. The culture medium was removed from the cultured human GLP-1 receptor-expressing CHO cells, 5 μl of each of the serially diluted materials was added to the cells, and then 5 μl of buffer containing cAMP antibody was added to the cells, followed by 15 minutes of incubation at room temperature. Then, cells were lysed by adding 10 μl of detection mix containing cell lysis buffer, and reacted at room temperature for 90 minutes. The cell lysate after the reaction had been completed, was applied to the LANCE cAMP kit (PerkinElmer, USA) to calculate the EC50 value through the accumulated cAMP, and then compared with each other.

T2 sequence (P47871 26-477): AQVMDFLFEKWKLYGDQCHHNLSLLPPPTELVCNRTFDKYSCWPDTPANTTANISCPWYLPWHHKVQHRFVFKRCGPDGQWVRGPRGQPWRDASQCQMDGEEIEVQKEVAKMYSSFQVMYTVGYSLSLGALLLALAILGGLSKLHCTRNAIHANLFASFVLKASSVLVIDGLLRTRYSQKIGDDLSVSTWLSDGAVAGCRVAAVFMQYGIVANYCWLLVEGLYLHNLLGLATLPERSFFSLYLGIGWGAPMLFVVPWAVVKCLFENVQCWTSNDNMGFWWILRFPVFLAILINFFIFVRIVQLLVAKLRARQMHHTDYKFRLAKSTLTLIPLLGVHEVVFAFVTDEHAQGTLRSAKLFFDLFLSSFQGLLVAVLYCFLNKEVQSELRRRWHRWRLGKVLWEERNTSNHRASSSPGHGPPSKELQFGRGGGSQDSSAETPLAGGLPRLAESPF
T3 sequence (P43220 24-463): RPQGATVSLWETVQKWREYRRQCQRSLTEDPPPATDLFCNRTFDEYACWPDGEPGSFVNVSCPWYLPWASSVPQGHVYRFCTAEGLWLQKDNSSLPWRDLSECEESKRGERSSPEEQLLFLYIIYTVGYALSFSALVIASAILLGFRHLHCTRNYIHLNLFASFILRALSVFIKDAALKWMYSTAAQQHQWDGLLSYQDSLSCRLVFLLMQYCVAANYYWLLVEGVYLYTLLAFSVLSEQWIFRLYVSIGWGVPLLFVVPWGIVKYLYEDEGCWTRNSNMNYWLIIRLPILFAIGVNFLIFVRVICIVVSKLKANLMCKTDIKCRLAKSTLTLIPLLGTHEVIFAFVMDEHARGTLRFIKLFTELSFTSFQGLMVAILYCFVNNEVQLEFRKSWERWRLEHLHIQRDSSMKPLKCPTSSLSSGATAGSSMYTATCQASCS

Turning to “42 (Y[Aib]QGTFTSDYSKYLDEKRAKEFVQWLLDHHPSSGQPPPSC; bridge 16-20) [compound 42]”, the “In vitro activity compared to native peptide (%) vs GIP” value (from here on “In vitro activity … (%) vs GIP”) with human GIP receptor is recorded as 1.2%. Further, in the assay with human GCG receptor, the “In vitro activity compared to native peptide (%) vs Glucagon” value (“In vitro activity … (%) vs Glucagon” for short) is on record as 23.1% and the “activity on the glucagon receptor” value is listed as “very high activity”. In addition, the “In vitro activity compared to native peptide (%) vs GLP-1” value (from here on “In vitro activity … (%) vs GLP-1”) in the assay with human GLP-1 receptor worked out at 3.1%.
In the case of “50 (H[Aib]QGTFTSDYSKYLDEKRAKEFVQWLLDHHPSSGQPPPSC; bridge 16-20) [compound 50]”, the “In vitro activity … (%) vs GIP” value in the assay with human GIP receptor was found to be 0.7%. In addition, in the assay with human GCG receptor, the “In vitro activity … (%) vs Glucagon” value came to 6.9%. Besides, the “In vitro activity … (%) vs GLP-1” value in the assay with human GLP-1 receptor amounted to 15.4%.
As to “21 (Y[Aib]QGTFTSDYSKYLDECRAKEFVQWLLDHHPSSGQPPPS; bridge 16-20) [compound 21]”, the “In vitro activity … (%) vs GIP” value with human GIP receptor amounted to 0.2%. Besides, in the assay with human GCG receptor, the “In vitro activity … (%) vs Glucagon” value is listed as 1.6% and the “activity on the glucagon receptor” value is “very high activity”. The “In vitro activity … (%) vs GLP-1” value in the assay with human GLP-1 receptor worked out at 0.1%.
As for “77 (Y[Aib]QGTFTSDYSKYLDEKAAKDFVQWLLDHHPSSGQPPPSC; bridge 16-20) [compound 77]”, in the assay with human GIP receptor, the “In vitro activity … (%) vs GIP” value was 6.6%. In addition, in the assay with human GCG receptor, the “In vitro activity … (%) vs Glucagon” value is on record as 1.7%. In addition, the “In vitro activity … (%) vs GLP-1” value in the assay with human GLP-1 receptor is recorded as 6.7%.
Take “22 (Y[Aib]QGTFTSDYSKCLDEKRAKEFVQWLLDHHPSSGQPPPS; bridge 16-20) [compound 22]”: the “In vitro activity … (%) vs GIP” value with human GIP receptor was determined as 0.5%. In the assay with human GCG receptor, the “In vitro activity … (%) vs Glucagon” value was 0.9% and the “activity on the glucagon receptor” value is on record as “very high activity”. Moreover, the “In vitro activity … (%) vs GLP-1” value with human GLP-1 receptor is 0.1%.
For “43 (Y[Aib]QGTFTSDYSKYLDEKRAKEFVQWLLDHHCSSGQPPPS; bridge 16-20) [compound 43]”, in the assay with human GIP receptor, the “In vitro activity … (%) vs GIP” value amounted to 0.6%. In the assay with human GCG receptor, the “In vitro activity … (%) vs Glucagon” value amounted to 13.5% and the “activity on the glucagon receptor” value was “very high activity”. Further, in the assay with human GLP-1 receptor, the “In vitro activity … (%) vs GLP-1” value is 2.1%.
On to “96 (Y[Aib]QGTFTSDYSKYLDEKRAKEFVQWLLDHCPSSGQPPPS; bridge 16-20) [compound 96]”, for which, in the assay with human GIP receptor, the “In vitro activity … (%) vs GIP” value amounted to 0.3%. Further, in the assay with human GCG receptor, the “In vitro activity … (%) vs Glucagon” value is reported as 4.0% and the “activity on the glucagon receptor” value was “very high activity”. Moreover, the “In vitro activity … (%) vs GLP-1” value in the assay with human GLP-1 receptor is listed as 0.3%.
